Laboratory results published in the nanobody polyreactivity screen of Harvey et al. (2022).

Assay: yeast display, Sf9 membrane polyspecificity reagent, FACS + sequencing; frameworks hold sequencing errors
Summary of the method: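 Polyreactivity labels are assigned by the sorting gate from which each nanobody was recovered. The gates were low and high (top ~1%), set on anti-HA fluorescence for expression and streptavidin fluorescence for reagent binding. Before sorting, galactose-induced (36–48 hours) yeast display cells were stained for 1 hour at 4 °C with 10% biotinylated, detergent-solubilized Sf9 membrane reagent.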

Sequence | polyreactivity (PSR sort gate)
QVQLVESGGGLVQAGGSLRLICADSGRIFRYNSRGWYRQAPAKERELVASISTGGSSTYYADSVKGRFTISRDNAKNTVYLQMNSLKPEYSAFYYCAATPYSYSARSYGPIYRYDYWGQGTQVTVSS | high polyreactivity
QVQLVESGGGLVQAGGSLRLICDASGSTFAVYTMGLYIQAPGTEREFVAAISSTGTCTYYADSVKGRFTISRDHAKNTVYLQKNSLKPEDTAVYYCAARWLGYRISYDYWGQGTQVTVSS | high polyreactivity
QVQLVESGGGLVQAGGSLRLICGASGSTFQVNAMGWYRQGPGKERELVASISGGSSTNYADSVKGRFTISRDNAKNTVYLQMNSLKPEDTAVYYCAAYYLSGLRVAYDYWGQGTQVTVSS | low polyreactivity
QVQLVESGGGLVQAGGSLRLICPASGRTFQYYAMGWYRQAPGKERELVAAIDDSDGDTYYADSVKGRFTISRDYATNTVYLQMISLKPEDTAVYYCAAVDGWTYTGSDYWGQGTQVTVSS | low polyreactivity
QVQLVESGGGLVQAGGSLRLICSASGLISRINAMGWYRQAPGKERELVAAISSGGSTNYADSVKGRFTISRDNAKNTVYLQMNSLKPEDTAVYYCAAEVFRVAWYDYWGQGTQVTVSS | high polyreactivity
QVQLVESGGGLVQAGGSLRLISAASGFIFLFYAMGWYRQAPGKERELVAAISSGVSTNYADSVKGRFTISRDNAKNTVYLQMNCLKPEDTAVYYCTTTQSTSLLYDYWGPGTQVTVSS | low polyreactivity
QVQLVESGGGLVQAGGSLRLISAASGSTFKIYAMGWYRQAPGKERELVAAITWSGGSTYYADSVKGRFTISRDNAKNTVYLQMNSLKPEDPAVYYCAAVQTYSRYYYWGQGTQVTVSS | high polyreactivity
QVQLVESGGGLVQAGGSLRLNCAASGSIFDDYAMGWYRQAPGKERELVAAINIRTGSTYYADSVKGRFTISRDNAKNTVYLQMNSLKPEDTAVYYCNRVVRGFVRHLDYWGQGTQVTVSS | low polyreactivity
QVQLVESGGGLVQAGGSLRLNCAASGSIFVLYAMGWYRQAPRKERELVAAIRSTGSTNYADSVKGRFTISRDNAKNTVYLQMNSLKPEDTAVYYCAAYRRRTYAVNKEGGYWGQGTQVTVSS | high polyreactivity
QVQLVESGGGLVQAGGSLRLNCAASGSTFGRNAKGWYRQAPGKERELVAAISLSTGSTYDADSVKGRFTISRDNAKNTVYLQMNSLKPEDTAVYYCAKEWGHPYHFLYYYWGQGTQVTVSS | high polyreactivity
QVQLVESGGGLVQAGGSLRLNCAASGSTFGYYAMGWYRQAPGKQRELVAAITSGASTNYADSVKGRFTISRDNAKNTVYLLMNSLKPEDTAVYYCSAGFQTRTPLNEFDYWGQGTQVTVSS | low polyreactivity
QVQLVESGGGLVQAGGSLRLRCAAAGSIFKLNAMGWYRQAPGKERELVAVIYKSAGRTYYADSVKGRFTISRDNAKNTVYLQMNSLKTEDTAVYYCNAVSKLAVNLDYWGQGTQVTVSS | high polyreactivity
QVQLVESGGGLVQAGGSLRLRCAASGFIFAWDAMGWYRQAPGKERELVATISGSGGRTYYADSVKGRFPISRDNAKNTVYLQMISLKPEETAVYYCATRAQGTSWYRTSKYDYWGQGTQVIVSS | high polyreactivity
QVQLVESGGGLVQAGGSLRLRCAASGFIFIFNAMGWYRQAPGKERELVAAIDTSDDSTYYADSVKGRFTISRDNAKNTVYLQMNSLKPEDTAVYYCAAEELSNYEYWGQGTQVTVSS | low polyreactivity
QVQLVESGGGLVQAGGSLRLRCAASGFIFPQYAMGWYRQAPGKEREKVAAISWSGTRTYYADSVKGRFTISRDNAKNTVYLQMNSLKPEDTADYYCAARIDRQYRWTGFGYWGQGTQVTVSS | high polyreactivity
QVQLVESGGGLVQAGGSLRLRCAASGFTFDLYAMGWYRQAPGKERELVAAISWSGGSTRYADSVKGRFTISRDNAKNTVYLQMNSLKPEDTAVYYCAKPVLVGLGSRYDYWGQGTQVTVSS | high polyreactivity
